Data: IntAct's records for PubMed 9418861

B1: Serine/threonine-protein kinase MRCK alpha (Homo sapiens), Q5VT25 (parent)
chain: MSGEVRLRQLEQFILDGPAQTNGQCFSVETLLDILICLYDECNNSPLRREKNILEYLEWAKPFTSKVKQMRLHREDFEILKVIGRGAFGEVAVVKLKNADKVFAMKILNKWEMLKRAETACFREERDVLVNGDNKWITTLHYAFQDDNNLYLVMDYYVGGDLLTLLSKFEDRLPEDMARFYLAEMVIAIDSVHQLHYVHRDIKPDNILMDMNGHIRLADFGSCLKLMEDGTVQSSVAVGTPDYISPEILQAMEDGKGRYGPECDWWSLGVCMYEMLYGETPFYAESLVETYGKIMNHKERFQFPAQVTDVSENAKDLIRRLICSREHRLGQNGIEDFKKHPFFSGIDWDNIRNCEAPYIPEVSSPTDTSNFDVDDDCLKNSETMPPPTHTAFSGHHLPFVGFTYTSSCVLSDRSCLRVTAGPTSLDLDVNVQRTLDNNLATEAYERRIKRLEQEKLELSRKLQESTQTVQALQYSTVDGPLTASKDLEIKNLKEEIEKLRKQVTESSHLEQQLEEANAVRQELDDAFRQIKAYEKQIKTLQQEREDLNKELVQASERLKNQSKELKDAHCQRKLAMQEFMEINERLTELHTQKQKLARHVRDKEEEVDLVMQKVESLRQELRRTERAKKELEVHTEALAAEASKDRKLREQSEHYSKQLENELEGLKQKQISYSPGVCSIEHQQEITKLKTDLEKKSIFYEEELSKREGIHANEIKNLKKELHDSEGQQLALNKEIMILKDKLEKTRRESQSEREEFESEFKQQYEREKVLLTEENKKLTSELDKLTTLYENLSIHNQQLEEEVKDLADKKESVAHWEAQITEIIQWVSDEKDARGYLQALASKMTEELEALRNSSLGTRATDMPWKMRRFAKLDMSARLELQSALDAEIRAKQAIQEELNKVKASNIITECKLKDSEKKNLELLSEIEQLIKDTEELRSEKGIEHQDSQHSFLAFLNTPTDALDQFERSPSCTPASKGRRTVDSTPLSVHTPTLRKKGCPGSTGFPPKRKTHQFFVKSFTTPTKCHQCTSLMVGLIRQGCSCEVCGFSCHITCVNKAPTTCPVPPEQTKGPLGIDPQKGIGTAYEGHVRIPKPAGVKKGWQRALAIVCDFKLFLYDIAEGKASQPSVVISQVIDMRDEEFSVSSVLASDVIHASRKDIPCIFRVTASQLSASNNKCSILMLADTENEKNKWVGVLSELHKILKKNKFRDRSVYVPKEAYDSTLPLIKTTQAAAIIDHERIALGNEEGLFVVHVTKDEIIRVGDNKKIHQIELIPNDQLVAVISGRNRHVRLFPMSALDGRETDFYKLSETKGCQTVTSGKVRHGALTCLCVAMKRQVLCYELFQSKTRHRKFKEIQVPYNVQWMAIFSEQLCVGFQSGFLRYPLNGEGNPYSMLHSNDHTLSFIAHQPMDAICAVEISSKEYLLCFNSIGIYTDCQGRRSRQQELMWPANPSSCCYNAPYLSVYSENAVDIFDVNSMEWIQTLPLKKVRPLNNEGSLNLLGLETIRLIYFKNKMAEGDELVVPETSDNSRKQMVRNINNKRRYSFRVPEEERMQQRREMLRDPEMRNKLISNPTNFNHIAHMGPGDGIQILKDLPMNPRPQESRTVFSGSVSIPSITKSRPEPGRSMSASSGLSARSSAQNGSALKREFSGGSYSAKRQPMPSPSEGSLSSGGMDQGSDAPARDFDGEDSDSPRHSTASNSSNLSSPPSPASPRKTKSLSLESTDRGSWDP

Variants of: B1
Details: with cdc42_human CDC42, P60953
cdc42_human CDC42, P60953, sequence (P60953 whole entry, looked up): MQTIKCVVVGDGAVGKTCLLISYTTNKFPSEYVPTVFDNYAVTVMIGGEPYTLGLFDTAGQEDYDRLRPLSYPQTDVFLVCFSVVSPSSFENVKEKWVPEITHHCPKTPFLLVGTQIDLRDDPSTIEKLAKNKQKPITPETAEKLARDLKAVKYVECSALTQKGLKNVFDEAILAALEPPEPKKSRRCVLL

Variant | effect of a mutation on the interaction
H1579A | decreasing interaction
H1582A | decreasing interaction
